The results in this text go back to the RNAGym collection of RNA variant scans (doi:10.1073/pnas.2313332121).

First the molecules themselves.
B1: TPR 5TU (parent)
chain: GGAUCUUCUCGAUCUAACAAAAAAGACAAAUCUGCCACAAAGCUUGAGAGCAUCUUCGGAUGCAGAGGCGGCAGCCUUCGGUGGCGCGAUAGCGCCAACGUUCUCAACUAUGACACGCAAAACGCGUGCUCCGUUGAAUGGAGUUUAUCAUG

This sample holds only a part of the variants without activity.

The series covers variants of B1. The experiment in a line: polymerase ribozyme fitness, log enrichment relative to wild type (log ratio); higher = more active; in vitro selection for triplet polymerase activity. Put shortly: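 PCR was used to build mutant libraries for each subunit of a heterodimeric triplet polymerase ribozyme, which were then transcribed. A single in vitro selection round, in triplicate, used a frozen incubation at −7 °C and recovered extended constructs by gel excision, streptavidin beads and RT-PCR. Fitness is the logarithm of genotype enrichment relative to wild-type enrichment, averaged over replicates with inverse-variance weights. The logarithm is base 2, and after Illumina sequencing only genotypes with ≥10 input reads and ≥1 read per output were kept.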
For C38U U53A C105U, the “polymerase ribozyme fitness (log ratio)” value worked out at 0.169.

On to A39C C79G G92A, for which the “polymerase ribozyme fitness (log ratio)” value is -3.32.

As to C38U G83U C149G A150C, the “polymerase ribozyme fitness (log ratio)” value was at most -4.2.

With A39G C63G G70C C87U A91G C99A A120G, the “polymerase ribozyme fitness (log ratio)” value was at most -4.2.

As to A39G G58U U82C C108A U146A A150C, the “polymerase ribozyme fitness (log ratio)” value is at most -4.2.

C38U U82C C85U U90G C99U C105U C108G A120G: the “polymerase ribozyme fitness (log ratio)” value was at most -4.2.

C38U C57G A89U G100C: the “polymerase ribozyme fitness (log ratio)” value is at most -4.2.

Take A39G C105G: the “polymerase ribozyme fitness (log ratio)” value is -3.19.

For C38U C96G G152U, the “polymerase ribozyme fitness (log ratio)” value is -3.85.

In the case of A39C U130G, the “polymerase ribozyme fitness (log ratio)” value is at most -4.2.

As for A39G A89G G92A G141C, the “polymerase ribozyme fitness (log ratio)” value is -3.85.

In the case of A39C U55A C118U, the “polymerase ribozyme fitness (log ratio)” value was -2.2.

Consider A39G G80U C95U C116G, for which the “polymerase ribozyme fitness (log ratio)” value was -3.6.

For the variant C38G A52G G62A U135G, the “polymerase ribozyme fitness (log ratio)” value was at most -4.2.

Take A39G G59C U104A: the “polymerase ribozyme fitness (log ratio)” value was -3.12.

On to A39G G42A G48C A49C G83U C87G C96A A107U, for which the “polymerase ribozyme fitness (log ratio)” value was at most -4.2.

In the case of C38U U55G G83U U135C, the “polymerase ribozyme fitness (log ratio)” value is -1.98.

As to C38U A41C G48A C51A G84C G141C, the “polymerase ribozyme fitness (log ratio)” value is at most -4.2.

On to C38U G50U U56A G74U C75G C125U U139A, for which the “polymerase ribozyme fitness (log ratio)” value is at most -4.2.

Turning to C38U A52G A73U G152U, the “polymerase ribozyme fitness (log ratio)” value was -4.12.

For C38U G80C C85U G100U, the “polymerase ribozyme fitness (log ratio)” value was at most -4.2.

With C38U A60C U77G C87U G94A U101A C105A, the “polymerase ribozyme fitness (log ratio)” value was at most -4.2.

For A39C A91U G94A G133C A142U U145A U148A, the “polymerase ribozyme fitness (log ratio)” value is at most -4.2.

Regarding C38U G62U C96G, the “polymerase ribozyme fitness (log ratio)” value was -1.8.

As for C38A U56A G74C G92U U109G, the “polymerase ribozyme fitness (log ratio)” value is at most -4.2.

Consider A39G G117C, for which the “polymerase ribozyme fitness (log ratio)” value was -1.91.

On to C38U G48A C87A, for which the “polymerase ribozyme fitness (log ratio)” value is at most -4.2.

C38U U148C: the “polymerase ribozyme fitness (log ratio)” value was -1.36.

For A39G C54A A91G G94A, the “polymerase ribozyme fitness (log ratio)” value is at most -4.2.

Take C38U G86U C118U: the “polymerase ribozyme fitness (log ratio)” value was -2.07.

As to A39G U55A C96A A97U, the “polymerase ribozyme fitness (log ratio)” value is -3.27.

Turning to C38G G140C, the “polymerase ribozyme fitness (log ratio)” value is -4.11.

For the variant A39C U82G G83C G133C, the “polymerase ribozyme fitness (log ratio)” value is at most -4.2.

As to A39U A122G U145G, the “polymerase ribozyme fitness (log ratio)” value was -2.48.

On to C38G C43U G81U G86U A98G C103G A150G U151C, for which the “polymerase ribozyme fitness (log ratio)” value is at most -4.2.

Take A39G G88A A142U: the “polymerase ribozyme fitness (log ratio)” value was at most -4.2.

As for C38U U55A A60G C75G C76G A115U A122U C125G, the “polymerase ribozyme fitness (log ratio)” value is at most -4.2.

For A39G C103G G126U, the “polymerase ribozyme fitness (log ratio)” value is at most -4.2.

Take C38G G58C G84A A119U: the “polymerase ribozyme fitness (log ratio)” value was -0.795.

Turning to C38U C75A G80U, the “polymerase ribozyme fitness (log ratio)” value was -4.14.

As for A39U A60U G81A C85A C93U, the “polymerase ribozyme fitness (log ratio)” value is at most -4.2.

Take C38U A41U G94A: the “polymerase ribozyme fitness (log ratio)” value is -1.15.

For the variant A39C U45A G48U C57G G70A G83C C96U A115G G141A, the “polymerase ribozyme fitness (log ratio)” value is at most -4.2.

Consider A39C G81A C99U C103G A107G C125U, for which the “polymerase ribozyme fitness (log ratio)” value is at most -4.2.

Regarding C38U G58C C96U A98G, the “polymerase ribozyme fitness (log ratio)” value came to 0.385.

C38U G88C G126C A147C: the “polymerase ribozyme fitness (log ratio)” value was at most -4.2.

C38U G62A A113G G136A: the “polymerase ribozyme fitness (log ratio)” value was -2.45.

As for A39C A47U, the “polymerase ribozyme fitness (log ratio)” value is -2.53.

Regarding A39C C75U G83A, the “polymerase ribozyme fitness (log ratio)” value was at most -4.2.

For A39G G58U G59C G124C G136A, the “polymerase ribozyme fitness (log ratio)” value was at most -4.2.

On to A39C C51U C105U C118U, for which the “polymerase ribozyme fitness (log ratio)” value is -3.78.

In the case of C38U U44A A47U G67C C69U G84A, the “polymerase ribozyme fitness (log ratio)” value is at most -4.2.

As to C38U G46A C95A, the “polymerase ribozyme fitness (log ratio)” value was -0.705.

As to C38U C63U A73G C87U, the “polymerase ribozyme fitness (log ratio)” value is -0.21.

With A39C U44G C75U C95U A119U G128U, the “polymerase ribozyme fitness (log ratio)” value is at most -4.2.

Consider C38U A52G C57U G67U A89U G92A, for which the “polymerase ribozyme fitness (log ratio)” value was at most -4.2.

With A39C A47C G62A C85U A98U U134A, the “polymerase ribozyme fitness (log ratio)” value was at most -4.2.

C38U C54U C57A G84A C118U: the “polymerase ribozyme fitness (log ratio)” value was -1.06.

With A39C A52G C123G, the “polymerase ribozyme fitness (log ratio)” value was -2.84.

With C38U G83U C123U U148C, the “polymerase ribozyme fitness (log ratio)” value was -2.21.

Consider A39G U77A G143C, for which the “polymerase ribozyme fitness (log ratio)” value was at most -4.2.

A39C U53A G62C U144A: the “polymerase ribozyme fitness (log ratio)” value is at most -4.2.

For C38U A49U U61G G83U G133C A142C, the “polymerase ribozyme fitness (log ratio)” value is at most -4.2.

On to C38U A73G C87U, for which the “polymerase ribozyme fitness (log ratio)” value came to 0.139.

Regarding C38U G50A A73U G126U, the “polymerase ribozyme fitness (log ratio)” value is -3.21.

Turning to C38U C95A C108U C132U, the “polymerase ribozyme fitness (log ratio)” value was -3.39.

On to C38U G83C, for which the “polymerase ribozyme fitness (log ratio)” value was -0.262.

For A39C A89U C116U, the “polymerase ribozyme fitness (log ratio)” value was -2.02.

Turning to A39G G70A U77G G141A A142C, the “polymerase ribozyme fitness (log ratio)” value is at most -4.2.

On to A39C G84A U144A, for which the “polymerase ribozyme fitness (log ratio)” value is -2.69.

C38G G42C U82G G86C G141C U144G: the “polymerase ribozyme fitness (log ratio)” value is at most -4.2.

Regarding A39U A52U C76G G83A, the “polymerase ribozyme fitness (log ratio)” value is at most -4.2.

With A39G C57A C99G, the “polymerase ribozyme fitness (log ratio)” value was -3.15.

Consider C38G U56G C72A A91U A107C G117A U148A, for which the “polymerase ribozyme fitness (log ratio)” value was at most -4.2.

Regarding C38U G50A A52U G68U G80A A97G A137U, the “polymerase ribozyme fitness (log ratio)” value is at most -4.2.

Regarding A39G C51U A52U G74A, the “polymerase ribozyme fitness (log ratio)” value is at most -4.2.

Turning to C38G A40G G83A, the “polymerase ribozyme fitness (log ratio)” value was -3.86.

For C38U U56A A147C, the “polymerase ribozyme fitness (log ratio)” value was -0.21.

Turning to C38G G80C C99G C116U, the “polymerase ribozyme fitness (log ratio)” value is -0.78.

On to C38U C57A C63U C95U A98U C99G, for which the “polymerase ribozyme fitness (log ratio)” value is -1.54.

As for A39G C57A C87U, the “polymerase ribozyme fitness (log ratio)” value was -1.73.

On to A39C G84A, for which the “polymerase ribozyme fitness (log ratio)” value is -3.26.

As to C38U A41G G58A, the “polymerase ribozyme fitness (log ratio)” value stood at 1.52.
